Data: US7589167B2, “ZA loops of bromodomains” (J. David Gladstone Institutes, priority 2000, dated 2009)
“Also recorded” adds a separate entry of the source. Where two headings read alike, the source gives them in different places. Where no end group is shown, it is not given here.

Tests used:
P/CAF bromodomain = biological target: T1, P/CAF bromodomain (Homo sapiens, UniProt Q92831, P804A/P805A); assay: NMR ligand titration (2D 15N-/13C-HSQC chemical shift changes) of the P/CAF bromodomain; assay type: binding; details: for binding to the P/CAF bromodomain (qualitative): NMR titration, chemical shift changes
T1 construct: poly-His (N, cleaved yes); made in house; host or cells: Escherichia coli BL21(DE3)
T1 sequence (Q92831 719-832 P804A/P805A): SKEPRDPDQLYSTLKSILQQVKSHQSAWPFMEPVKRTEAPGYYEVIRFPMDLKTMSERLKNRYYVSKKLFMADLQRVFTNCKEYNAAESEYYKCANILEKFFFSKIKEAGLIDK
Experimental: (§1) NMR spectroscopy: All NMR spectra were acquired at 30° C. on a Bruker DRX600 or DRX500 spectrometer. The backbone assignments of the ^1H, ^13C, and ^15N resonances were achieved using deuterium-decoupled triple-resonance experiments of HNCACB and HN(CO)CACB [Yamazaki et al., J. Am. Chem. Soc. 116:11655-11666 (1994)] recorded using the uniformly ^15N/^13C-labeled and fractionally deuterated protein. The side-chain atoms were assigned from 3D HCCH-TOCSY [Clore and Gronenbom, Meth. Enzymol. 239:249-363 (1994)] and (H)C(CO)NH-TOCSY [Logan et al., J. Biolmol. NMR 3:225-231 (1993)] data collected on the uniformly ^15N/^13C-labeled protein. Stereospecific assignments of methyl groups of the Val and Leu residues were obtained using a fractionally ^13C-labeled sample [Neri et al., Biochemistry 28:7510-7516 (1989)]. The NOE-derived distance restraints were obtained from ^15N- or ^13C-edited 3D NOESY spectra. φ-angle restraints were determined based on the ^3JHn,Hα coupling constants measured in a 3D H spectrum [Clore and Gronenbom, Meth. Enzymol. 239:249-363 (1994)]. Slowly exchanging amide protons were identified from a series of 2D ^15N-HSQC spectra recorded after the H2O buffer was changed to a ^2H2O buffer. The intermolecular NOEs used in defining the structure of the bromodomain/Ac-histamine complex were detected in ^13C-edited (F1), ^13C/^15N-filtered (F3) 3D NOESY spectrum [Clore and Gronenbom, Meth. Enzymol. 239:249-363 (1994)]. All NMR spectra were processed with the NMRPipe/NMRDraw programs and analyzed using NMRView [Johnson and Blevins, J. Biomol., NMR 4:603-614 (1994)].
(§2) Ligand titration: Ligand titration experiments were performed by recording a series of 2D ^15N—- and ^13C-HSQC spectra on the uniformly ^15N-, and ^15N/^13C-labelled bromodomain (˜0.3 mM), respectively, in the presence of different amounts of ligand concentration ranging from 0 to approximately 2.0 mM. The protein sample and the stock solutions of the ligands were all prepared in the same aqueous buffer containing 100 mM phosphate and 5 mM perdeuterated DTT at pH 6.5.
as §1, with “the uniformly ^15N/^13C-labelled and fractionally” for “the uniformly ^15N/^13C-labeled and fractionally”, “of the valine and leucine” for “of the Val and Leu”, “valine and leucine residues were” for “Val and Leu residues were”, “3D NOESY spectra [Clore and Gronenbom, Meth. Enzymol. 239:249-363 (1994)]. φ-angle restraints” for “3D NOESY spectra. φ-angle restraints”, “on the ^3JHN,H coupling constants” for “on the ^3JHn,Hα coupling constants”, “a 3D HNHA spectrum [Clore” for “a 3D H spectrum [Clore”
Ligand titration experiments were performed by recording a series of 2D ^15N-HSQC spectra on the uniformly ^15N-labelled bromodomain (˜0.3 mM), respectively, in the presence of different amounts of ligand concentration ranging from 0 to ˜2.0 mM.

[1] = system: biotinylated and lysine-acetylated Tat peptide; assay: Mutational analysis: binding of P/CAF bromodomain mutant proteins to immobilized lysine-acetylated Tat peptide; parameters: species or system HIV-1; details: peptide immobilized onto streptavidin agarose
Experimental: Site directed mutagenesis. Site directed mutagenesis was performed on selected residues of P/CAF Bromodomain using quick-change kit (Stratagene). The mutants were confirmed by sequencing and proteins were expressed and purified as above.
Peptide binding assay. Equal amount (10 μM) of GST, GST-P/CAF bromodomain and its mutant proteins, as well as various GST-fusion bromodomains from CBP and TIF1β were incubated for at least two hours at room temperature with the N-terminal biotinylated and lysine-acetylated Tat peptide (50 μM) in a 50 mM Tris buffer of pH 7.5, containing 50 mM NaCl, 0.1% BSA and 1 mMDTT. Streptavidin agarose (10 μL) was added to mixture and the beads were washed twice in the Tris buffer with 500 mM NaCl and 0.1% NP-40. Proteins were eluted from the argarose beads in SDS buffer and separated on a 14% SDS-PAGE. The resolved proteins were transferred onto nitrocellulose membrane (Pharmacia), and the membrane was blocked overnight with 5% non-fat milk in washing buffer of 20 mM Tris, pH 7.5, plus 150 mM NaCl and 0.1% Tween-20 at 4° C. Western blotting was performed with anti-GST antibody (Sigma) and goat anti-rabbit IgG conjugated with horseradish-peroxidase (Promega) and developed by chemiluminescence. Peptide competition experiments were performed by incubating various non-biotinylated and mutant Tat peptide with the P/CAF bromodomain and the biotinylated and wild type Tat peptide. The molar ratio of the wild type and mutant Tat peptides in the mixture were kept at 1:2. The binding results were analyses by using the procedure as described above.
To identify the amino acid residues of the P/CAF bromodomain that are important for complex formation, mutant proteins were tested for binding to the biotinylated and lysine-acetylated Tat peptide that is immobilized onto streptavidin agarose (FIG. 10A). […] The results from the mutational analysis agree with the observations of intermolecular NOEs in the NMR spectra.

[2] = Structural integrity of P/CAF bromodomain mutants by 15N-HSQC spectra; assay type: physicochemical; parameters: key: ++++: as stable as the wild-type; +++: mildly destabilized; ++: moderately destabilized; −: completely unfolded; details: relative to wild-type
Experimental: (§3) Site-directed mutagenesis: Mutant proteins were prepared using the QuickChange site-directed mutagenesis kit (Stratagene). The presence of appropriate mutations was confirmed by DNA sequencing.

[3] = system: lysine-acetylated H4 peptide; assay: NMR titration of wild-type and mutant P/CAF bromodomain proteins with the H4 AcK peptide; assay type: binding; details: for binding of bromodomain mutants to the lysine-acetylated H4 peptide (qualitative): NMR titration; for Kd: read-out: H4 AcK-Peptide Binding KD
Experimental: as §3, §2

P/CAF = biological target: T2, P/CAF (Homo sapiens, UniProt Q92831); assay: Western blot assay to detect P/CAF interaction with the Tat protein in cells; assay type: cell-based; details: FLAG-Tat, HA-P/CAF
T2 construct: HA; expressed in transfected cells
T2 sequence (Q92831 whole entry): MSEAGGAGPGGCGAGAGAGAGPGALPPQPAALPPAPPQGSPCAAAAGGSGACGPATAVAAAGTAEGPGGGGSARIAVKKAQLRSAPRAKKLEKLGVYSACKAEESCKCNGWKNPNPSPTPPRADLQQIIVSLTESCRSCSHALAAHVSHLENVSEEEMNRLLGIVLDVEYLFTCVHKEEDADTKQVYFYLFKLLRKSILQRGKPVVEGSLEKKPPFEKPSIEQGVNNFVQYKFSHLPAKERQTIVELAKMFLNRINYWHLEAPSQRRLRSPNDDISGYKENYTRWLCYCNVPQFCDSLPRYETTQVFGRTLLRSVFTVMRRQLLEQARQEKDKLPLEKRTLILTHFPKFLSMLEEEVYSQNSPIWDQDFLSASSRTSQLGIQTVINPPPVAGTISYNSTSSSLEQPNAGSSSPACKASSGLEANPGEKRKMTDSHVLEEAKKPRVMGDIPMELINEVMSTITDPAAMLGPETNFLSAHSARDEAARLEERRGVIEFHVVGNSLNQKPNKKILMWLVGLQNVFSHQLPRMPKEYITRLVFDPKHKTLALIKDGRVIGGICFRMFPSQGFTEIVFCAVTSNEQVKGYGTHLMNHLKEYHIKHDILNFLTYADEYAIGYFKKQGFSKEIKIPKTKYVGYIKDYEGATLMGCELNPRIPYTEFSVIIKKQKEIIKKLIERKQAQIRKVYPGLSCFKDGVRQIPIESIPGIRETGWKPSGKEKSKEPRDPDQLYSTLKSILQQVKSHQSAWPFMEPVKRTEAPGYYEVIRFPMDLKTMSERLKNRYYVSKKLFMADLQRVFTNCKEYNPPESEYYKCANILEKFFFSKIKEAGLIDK
From the text: FIGS. 8A-8B show a western blot assay to detect P/CAF interaction with the Tat protein. Note that the protein-protein interaction was only observed with the wild type Tat but not with the Tat K50R/K51R mutant protein. The FLAG was joined to the Tat peptide, whereas the HA-tag was joined to P/CAF.

[4] = system: Tat transactivation activity; assay: Superinduction of Tat transactivation activity by P/CAF; assay type: cell-based, HIV-1
From the text: FIG. 7 is a bar graph of the measurement of superinduction of Tat transactivation activity by P/CAF. Tat-KK is the wild type Tat protein, and Tat-RR is the double mutant Tat carrying lysine to arginine mutations at K50 and K51 positions.

[5] = estimated from amide chemical shift changes in 15N-HSQC vs ligand concentration

ARKSTGG-AcK-APRKQL (ARKSTGGXAPRKQL; acetyl-lysine; synthetic bromodomain peptide)
binding to the P/CAF bromodomain (qualitative) (P/CAF bromodomain): bind to the P/CAF bromodomain

CC(=O)NCCc1cnc[nH]1 [acetyl-histamine]
binding to the P/CAF bromodomain (qualitative) (P/CAF bromodomain): chemical shift perturbations with similar concentration dependence and does

ISYGR-AcK-KRRQRR
binding to the P/CAF bromodomain (qualitative) (P/CAF bromodomain): bind to the P/CAF bromodomain

SYGRK(Ac)KRRQRC [Tat AcK50 peptide, SYGR-AcK-KRRQRC]
Kd (P/CAF bromodomain): ~20 µM

CC(=O)N[C@@H](CCCCN)C(=O)O [acetyl-lysine]
binding to the P/CAF bromodomain (qualitative) (P/CAF bromodomain): did not bind; also recorded: does not appear to bind

CC(=O)N[C@@H](Cc1c[nH]cn1)C(=O)O [acetyl-histidine]
binding to the P/CAF bromodomain (qualitative) (P/CAF bromodomain): did not bind; also recorded: does not to bind

CC(=O)NCCCC[C@H](NC(=O)CNC(=O)CNC(=O)[C@H](CCCCN)NC(=O)CNC(=O)[C@H](CCCNC(=N)N)NC(=O)CNC(=O)[C@@H](N)CO)C(=O)NCC(=O)N[C@@H](CC(C)C)C(=O)NCC(=O)N[C@@H](CCCCN)C(=O)O [SGRGKGG-AcK-GLGK]
Kd (P/CAF bromodomain; estimated from NMR titration, 15N-HSQC, pH 6.5, 30° C., read-out: dissociation constant (KD)): 346 ± 54 µM

QSTSRHK-AcK-LMFKTE (QSTSRHKXLMFKTE; acetyl-lysine; synthetic bromodomain peptide)
binding to the P/CAF bromodomain (qualitative) (P/CAF bromodomain): bind to the P/CAF bromodomain

B1: Tyr809Ala: P/CAF bromodomain point mutant, Tyr809 to Ala (protein)
chain: SKEPRDPDQLYSTLKSILQQVKSHQSAWPFMEPVKRTEAPGYYEVIRFPMDLKTMSERLKNRYYVSKKLFMADLQRVFTNCKEYNAAESEAYKCANILEKFFFSKIKEAGLIDK
binding of alanine point mutants to the Tat AcK50 peptide (qualitative) [1]: nearly complete loss or significantly reduced binding | Structural Integrity [2]: ++++ | binding of bromodomain mutants to the lysine-acetylated H4 peptide (qualitative) [3]: completely abrogated | H4 AcK-Peptide Binding KD (μM) [3, 5]: No Binding ^c

B2: Wild-Type: wild-type bromodomain of P/CAF (residues 719-832 of SEQ ID NO:2) (protein, listed as Homo sapiens)
chain: SKEPRDPDQLYSTLKSILQQVKSHQSAWPFMEPVKRTEAPGYYEVIRFPMDLKTMSERLKNRYYVSKKLFMADLQRVFTNCKEYNAAESEYYKCANILEKFFFSKIKEAGLIDK
Structural Integrity [2]: ++++ | Kd [3, 5]: 346 ± 54 µM

B3: Val752Ala (protein)
chain: SKEPRDPDQLYSTLKSILQQVKSHQSAWPFMEPAKRTEAPGYYEVIRFPMDLKTMSERLKNRYYVSKKLFMADLQRVFTNCKEYNAAESEYYKCANILEKFFFSKIKEAGLIDK
binding of alanine point mutants to the Tat AcK50 peptide (qualitative) [1]: nearly complete loss or significantly reduced binding | Structural Integrity [2]: ++ | binding of bromodomain mutants to the lysine-acetylated H4 peptide (qualitative) [3]: significantly reduced ligand binding affinity | Kd [3, 5]: > 10000 µM

B4: Tyr760Ala: P/CAF bromodomain point mutant, Tyr760 to Ala (protein)
chain: SKEPRDPDQLYSTLKSILQQVKSHQSAWPFMEPVKRTEAPGAYEVIRFPMDLKTMSERLKNRYYVSKKLFMADLQRVFTNCKEYNAAESEYYKCANILEKFFFSKIKEAGLIDK
Structural Integrity [2]: +++ | binding of bromodomain mutants to the lysine-acetylated H4 peptide (qualitative) [3]: significantly reduced ligand binding affinity | Kd [3, 5]: > 10000 µM

B5: Tyr802Ala: P/CAF bromodomain point mutant, Tyr802 to Ala (protein)
chain: SKEPRDPDQLYSTLKSILQQVKSHQSAWPFMEPVKRTEAPGYYEVIRFPMDLKTMSERLKNRYYVSKKLFMADLQRVFTNCKEANAAESEYYKCANILEKFFFSKIKEAGLIDK
binding of alanine point mutants to the Tat AcK50 peptide (qualitative) [1]: nearly complete loss or significantly reduced binding | Structural Integrity [2]: +++ | binding of bromodomain mutants to the lysine-acetylated H4 peptide (qualitative) [3]: significantly reduced ligand binding affinity | Kd [3, 5]: > 10000 µM

B6: Tat: wild type HIV-1 Tat protein (SEQ ID NO:45) (protein)
chain: MEPVDPRLEPWKHPGSQPKTASNNCYCKRCCLHCQVCFTKKGLGISYGRKKRRQRRRAPQDSKTHQVSLSKQPASQPRGDPTGPKESKKKVERETETDPED
modifications: Human immunodeficiency virus type 1; Tat protein
specific interaction with P/CAF in cells (P/CAF): detected | increase of Tat transactivation activity upon P/CAF stimulation [4]: ≤ 30 fold
